This passage reports protein stability index results from the supplement of paper PMC10567573.

Sequences and labels used below:
B1: ZNF207 (parent)
chain: CHICHKKLYTGPGLAIHCMQVHKE
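Also: lentivirally expressed fusions sorted by FACS into six bins by GFP to DsRed ratio, PSI derived from sequencing read proportions per bin multiplied by bin number.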

In the data set the parent is B1. The experiment in a line: protein stability index of a GFP-peptide fusion (GPS, HEK-293T) (PSI 1-6); higher = more stable. The following applies: c terminus: a fixed tail appended.
Take CHICIKKLYTGPGLAIHCMQVHKE [H5I]: the protein stability index was determined as 2.03.
Take CHICYKKLYTGPGLAIHCMQVHKE [H5Y]: the protein stability index was 2.97.
Consider CHICQKKLYTGPGLAIHCMQVHKE [H5Q], for which the protein stability index turned out to be 2.79.
Turning to CHICNKKLYTGPGLAIHCMQVHKE [H5N], the protein stability index is 3.18.
For CHICVKKLYTGPGLAIHCMQVHKE [H5V] the value was 1.63.
In the case of CHICAKKLYTGPGLAIHCMQVHKE [H5A], the protein stability index was 3.83.
CHICLKKLYTGPGLAIHCMQVHKE [H5L]: the protein stability index came out at 3.01.
The result for CHICDKKLYTGPGLAIHCMQVHKE [H5D] reads 3.49; that for CHICTKKLYTGPGLAIHCMQVHKE [H5T], 2.48.
With CHICFKKLYTGPGLAIHCMQVHKE [H5F], the protein stability index worked out at 3.26.
CHICSKKLYTGPGLAIHCMQVHKE [H5S]: the protein stability index was 2.83.
For CHICWKKLYTGPGLAIHCMQVHKE [H5W] the value was 2.74; for CHICEKKLYTGPGLAIHCMQVHKE [H5E], 3.63.
For the variant CHICMKKLYTGPGLAIHCMQVHKE [H5M], the protein stability index is 3.33.
On to CHICHYKLYTGPGLAIHCMQVHKE [K6Y], for which the protein stability index is 2.72.
As to CHICHDKLYTGPGLAIHCMQVHKE [K6D], the protein stability index is 3.28.
The result for CHICHRKLYTGPGLAIHCMQVHKE [K6R] reads 3.97; that for CHICHFKLYTGPGLAIHCMQVHKE [K6F], 1.84.
For CHICHIKLYTGPGLAIHCMQVHKE [K6I], the protein stability index was found to be 2.63.
As to CHICHPKLYTGPGLAIHCMQVHKE [K6P], the protein stability index stood at 2.12.
For CHICHGKLYTGPGLAIHCMQVHKE [K6G] the value was 3.03; for CHICHLKLYTGPGLAIHCMQVHKE [K6L], 2.36; for CHICHEKLYTGPGLAIHCMQVHKE [K6E], 4.41.
Turning to CHICHHKLYTGPGLAIHCMQVHKE [K6H], the protein stability index amounted to 3.51.
For CHICHTKLYTGPGLAIHCMQVHKE [K6T] the value was 2.15; for CHICHQKLYTGPGLAIHCMQVHKE [K6Q], 4.09.
For CHICHSKLYTGPGLAIHCMQVHKE [K6S] the value was 3.54.
The result for CHICHCKLYTGPGLAIHCMQVHKE [K6C] reads 3.45; that for CHICHAKLYTGPGLAIHCMQVHKE [K6A], 4.37; that for CHICHWKLYTGPGLAIHCMQVHKE [K6W], 2.17.
Take CHICHNKLYTGPGLAIHCMQVHKE [K6N]: the protein stability index amounted to 3.25.
The result for CHICHMKLYTGPGLAIHCMQVHKE [K6M] reads 3.35; that for CHICHVKLYTGPGLAIHCMQVHKE [K6V], 3.41.
In the case of CHICHKCLYTGPGLAIHCMQVHKE [K7C], the protein stability index was found to be 3.63.
The result for CHICHKALYTGPGLAIHCMQVHKE [K7A] reads 3.92; that for CHICHKFLYTGPGLAIHCMQVHKE [K7F], 4.02; that for CHICHKELYTGPGLAIHCMQVHKE [K7E], 4.14.
Regarding CHICHKDLYTGPGLAIHCMQVHKE [K7D], the protein stability index came out at 4.16.
For CHQCHKKLYTGPGLAIHCMQVHKE [I3Q] the value was 2.44.
In the case of CHRCHKKLYTGPGLAIHCMQVHKE [I3R], the protein stability index turned out to be 2.52.
The result for CHVCHKKLYTGPGLAIHCMQVHKE [I3V] reads 2.51; that for CHSCHKKLYTGPGLAIHCMQVHKE [I3S], 2.58; that for CHPCHKKLYTGPGLAIHCMQVHKE [I3P], 1.99.
The result for CHMCHKKLYTGPGLAIHCMQVHKE [I3M] reads 2.73; that for CHGCHKKLYTGPGLAIHCMQVHKE [I3G], 2.48; that for CHWCHKKLYTGPGLAIHCMQVHKE [I3W], 2.73.
Regarding CHTCHKKLYTGPGLAIHCMQVHKE [I3T], the protein stability index was found to be 3.03.
For CHLCHKKLYTGPGLAIHCMQVHKE [I3L] the value was 3.09; for CHNCHKKLYTGPGLAIHCMQVHKE [I3N], 2.19.
The result for CHFCHKKLYTGPGLAIHCMQVHKE [I3F] reads 2.34; that for CHDCHKKLYTGPGLAIHCMQVHKE [I3D], 2.24; that for CHKCHKKLYTGPGLAIHCMQVHKE [I3K], 3.1.
The result for CHHCHKKLYTGPGLAIHCMQVHKE [I3H] reads 3.67; that for CHECHKKLYTGPGLAIHCMQVHKE [I3E], 2.37.
Turning to CHYCHKKLYTGPGLAIHCMQVHKE [I3Y], the protein stability index worked out at 3.43.
As to CHCCHKKLYTGPGLAIHCMQVHKE [I3C], the protein stability index amounted to 2.54.
In the case of CHACHKKLYTGPGLAIHCMQVHKE [I3A], the protein stability index was found to be 2.17.
For the variant CHITHKKLYTGPGLAIHCMQVHKE [C4T], the protein stability index was determined as 1.5.
The result for CHIAHKKLYTGPGLAIHCMQVHKE [C4A] reads 1.36; that for CHIQHKKLYTGPGLAIHCMQVHKE [C4Q], 2.01; that for CHIFHKKLYTGPGLAIHCMQVHKE [C4F], 1.93.
As for CHIDHKKLYTGPGLAIHCMQVHKE [C4D], the protein stability index is 1.6.
In the case of CHISHKKLYTGPGLAIHCMQVHKE [C4S], the protein stability index worked out at 1.38.
For the variant CHIGHKKLYTGPGLAIHCMQVHKE [C4G], the protein stability index came to 1.7.
In the case of CHIIHKKLYTGPGLAIHCMQVHKE [C4I], the protein stability index stood at 3.16.
As for CHIWHKKLYTGPGLAIHCMQVHKE [C4W], the protein stability index came out at 1.88.
For CHIHHKKLYTGPGLAIHCMQVHKE [C4H], the protein stability index is 1.6.
The result for CHIKHKKLYTGPGLAIHCMQVHKE [C4K] reads 1.15; that for CHIRHKKLYTGPGLAIHCMQVHKE [C4R], 1.94.
The result for CHILHKKLYTGPGLAIHCMQVHKE [C4L] reads 1.39.
For CHIMHKKLYTGPGLAIHCMQVHKE [C4M] the value was 2.12; for CHIEHKKLYTGPGLAIHCMQVHKE [C4E], 1.07; for CHINHKKLYTGPGLAIHCMQVHKE [C4N], 1.9.
With CHIYHKKLYTGPGLAIHCMQVHKE [C4Y], the protein stability index was found to be 2.04.
The result for CHIPHKKLYTGPGLAIHCMQVHKE [C4P] reads 2.5.
For CKICHKKLYTGPGLAIHCMQVHKE [H2K] the value was 2.91.
For CLICHKKLYTGPGLAIHCMQVHKE [H2L] the value was 2.78; for CSICHKKLYTGPGLAIHCMQVHKE [H2S], 2.73; for CPICHKKLYTGPGLAIHCMQVHKE [H2P], 2.9.
For CQICHKKLYTGPGLAIHCMQVHKE [H2Q], the protein stability index came to 3.4.
As to CYICHKKLYTGPGLAIHCMQVHKE [H2Y], the protein stability index is 2.74.
For CRICHKKLYTGPGLAIHCMQVHKE [H2R] the value was 2.59; for CFICHKKLYTGPGLAIHCMQVHKE [H2F], 2.76; for CAICHKKLYTGPGLAIHCMQVHKE [H2A], 2.71.
In the case of CCICHKKLYTGPGLAIHCMQVHKE [H2C], the protein stability index was 2.45.
The result for CMICHKKLYTGPGLAIHCMQVHKE [H2M] reads 2.49; that for CWICHKKLYTGPGLAIHCMQVHKE [H2W], 2.61.
For the variant CDICHKKLYTGPGLAIHCMQVHKE [H2D], the protein stability index came to 4.28.
On to CEICHKKLYTGPGLAIHCMQVHKE [H2E], for which the protein stability index came to 3.07.
For CNICHKKLYTGPGLAIHCMQVHKE [H2N] the value was 3.65; for CTICHKKLYTGPGLAIHCMQVHKE [H2T], 2.87; for CGICHKKLYTGPGLAIHCMQVHKE [H2G], 3.31.
Regarding CIICHKKLYTGPGLAIHCMQVHKE [H2I], the protein stability index amounted to 2.46.
In the case of CVICHKKLYTGPGLAIHCMQVHKE [H2V], the protein stability index worked out at 2.44.
